Blank lines part the entries; values can stand above or below the molecule they belong to.
Columns and labels:
AMPK = target: T1, AMPK (Homo sapiens, UniProt Q13131); assay: Activation and Thr-172 phosphorylation of endogenous AMPK in HeLa cells with or without stably expressed LKB1; assay type: cell-based; details: earlier unpublished results
T1 construct: Endogenous AMPK was immunoprecipitated from the cell extracts and assayed; endogenous in cells; host or cells: HeLa cells (control, or stably expressing wild type or kinase-dead LKB1)
T1 sequence (Q13131 whole entry): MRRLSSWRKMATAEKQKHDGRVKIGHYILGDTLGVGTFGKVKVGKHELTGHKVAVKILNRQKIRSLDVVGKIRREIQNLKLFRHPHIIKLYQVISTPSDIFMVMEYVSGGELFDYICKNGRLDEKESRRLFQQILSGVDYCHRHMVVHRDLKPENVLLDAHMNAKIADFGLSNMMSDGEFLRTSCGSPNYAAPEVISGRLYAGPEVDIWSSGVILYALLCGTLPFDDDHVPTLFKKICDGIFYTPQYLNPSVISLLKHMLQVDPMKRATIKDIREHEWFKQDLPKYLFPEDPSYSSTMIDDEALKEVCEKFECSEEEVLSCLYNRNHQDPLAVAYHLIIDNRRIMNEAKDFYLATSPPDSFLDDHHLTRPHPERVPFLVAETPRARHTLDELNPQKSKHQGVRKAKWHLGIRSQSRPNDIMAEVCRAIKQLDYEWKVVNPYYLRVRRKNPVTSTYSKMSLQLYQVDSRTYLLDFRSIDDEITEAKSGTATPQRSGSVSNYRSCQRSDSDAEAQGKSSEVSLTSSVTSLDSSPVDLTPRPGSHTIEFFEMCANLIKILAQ
T1 sequence (Q9Y478 2-270 partner limits assumed): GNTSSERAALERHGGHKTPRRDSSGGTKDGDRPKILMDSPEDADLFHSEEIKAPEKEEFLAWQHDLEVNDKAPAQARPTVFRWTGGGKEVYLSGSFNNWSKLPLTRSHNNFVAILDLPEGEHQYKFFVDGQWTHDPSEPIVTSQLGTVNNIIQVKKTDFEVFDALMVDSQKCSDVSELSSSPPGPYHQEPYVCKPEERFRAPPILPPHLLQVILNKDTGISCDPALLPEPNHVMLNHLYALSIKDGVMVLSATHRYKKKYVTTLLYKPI
T1 sequence (P54619 whole entry partner): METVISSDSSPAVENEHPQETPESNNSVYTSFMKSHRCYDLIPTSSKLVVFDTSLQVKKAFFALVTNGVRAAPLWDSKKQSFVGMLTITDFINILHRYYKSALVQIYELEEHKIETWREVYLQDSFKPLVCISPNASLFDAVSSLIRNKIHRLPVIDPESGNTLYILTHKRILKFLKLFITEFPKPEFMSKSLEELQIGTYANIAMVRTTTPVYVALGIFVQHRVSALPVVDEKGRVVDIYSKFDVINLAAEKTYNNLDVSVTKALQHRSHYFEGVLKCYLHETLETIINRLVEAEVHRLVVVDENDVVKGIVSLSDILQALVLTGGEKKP

[1] = target: T2, GST-LKB1-STRADα-MO25α complex (Mus musculus, UniProt Q9WTK7); assay: LKB1 kinase assay with AMPK T-loop peptide substrate (Example 3); assay type: biochemical; details: peptide 10-2000 μM, 0.1 mM ATP, 30 min at 30° C.
T2 construct: Constructs expressing the full length wild type and kinase dead mouse LKB1 have been described previously; made in house; host or cells: HEK-293 / HEK-293T cells, co-transfected
T2 sequence (Q9WTK7 1-433 limits assumed): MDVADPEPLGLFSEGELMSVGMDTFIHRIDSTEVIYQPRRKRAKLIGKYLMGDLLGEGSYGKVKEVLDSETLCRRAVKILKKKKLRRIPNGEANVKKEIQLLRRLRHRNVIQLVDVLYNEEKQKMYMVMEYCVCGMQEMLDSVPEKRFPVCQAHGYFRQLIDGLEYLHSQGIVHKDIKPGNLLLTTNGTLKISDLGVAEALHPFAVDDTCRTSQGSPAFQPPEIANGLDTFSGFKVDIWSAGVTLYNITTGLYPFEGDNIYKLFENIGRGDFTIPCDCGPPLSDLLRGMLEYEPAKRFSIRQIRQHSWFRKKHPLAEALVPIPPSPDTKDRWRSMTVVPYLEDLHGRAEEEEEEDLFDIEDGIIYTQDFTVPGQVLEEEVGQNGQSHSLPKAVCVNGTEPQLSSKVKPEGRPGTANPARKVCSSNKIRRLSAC
T2 sequence (Q7RTN6 1-431 partner): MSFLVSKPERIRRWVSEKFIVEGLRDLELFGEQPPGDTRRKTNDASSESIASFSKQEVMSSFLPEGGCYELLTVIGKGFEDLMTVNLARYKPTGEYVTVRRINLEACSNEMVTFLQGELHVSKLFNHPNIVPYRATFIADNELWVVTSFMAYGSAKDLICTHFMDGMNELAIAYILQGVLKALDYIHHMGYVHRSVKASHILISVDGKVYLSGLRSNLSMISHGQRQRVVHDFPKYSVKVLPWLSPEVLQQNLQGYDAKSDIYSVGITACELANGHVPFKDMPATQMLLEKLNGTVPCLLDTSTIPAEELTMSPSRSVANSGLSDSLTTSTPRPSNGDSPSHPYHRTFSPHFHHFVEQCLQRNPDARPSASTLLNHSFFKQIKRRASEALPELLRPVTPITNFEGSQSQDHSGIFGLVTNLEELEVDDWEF
T2 sequence (Q9Y376 1-341 partner): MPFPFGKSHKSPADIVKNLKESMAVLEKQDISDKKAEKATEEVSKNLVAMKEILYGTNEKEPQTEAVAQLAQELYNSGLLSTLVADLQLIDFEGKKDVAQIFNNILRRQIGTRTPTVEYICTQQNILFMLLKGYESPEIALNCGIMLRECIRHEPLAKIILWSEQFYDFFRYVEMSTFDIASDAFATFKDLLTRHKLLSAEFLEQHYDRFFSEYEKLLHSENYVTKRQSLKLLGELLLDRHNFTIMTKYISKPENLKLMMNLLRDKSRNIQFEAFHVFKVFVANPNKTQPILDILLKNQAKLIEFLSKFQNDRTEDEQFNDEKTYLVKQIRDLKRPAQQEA
Description: FIG. 20: Km and Vmax for a peptide substrate (termed AMPKtide). Assay conditions are described in Example 3.
An assay may be performed as follows. Other assays using such a substrate peptide may be used, for example in a high throughput format. The standard assay (50 μl) contained: 0.3 μg of purified GST-LKB1-STRADα-MO25α complex, 50 mM Tris/HCl pH 7.5, 0.1 mM EGTA, 0.1% (by vol) 2-mercaptoethanol, 10 mM magnesium acetate, 0.1 mM [γ^32P]ATP (˜200 cpm/pmol) and T-loop peptide ([…], 10-2000 μM). The assays were carried out for 30 min at 30° C., then terminated by pipetting the reaction mixture onto a 1 cm square of p81 paper, which was washed with 6 changes of 250 ml of 50 mM phosphoric acid (2 min each wash), the paper washed once in 200 ml of acetone and dried. Radioactivity bound to the p81 paper was quantitated by Cherenkov counting. 1 unit of activity is the amount of enzyme that catalyses the phosphorylation of 1 nmol of peptide per minute.

[2] = target: T3, T-loop peptide of AMPK (Example 3)
T3 chain: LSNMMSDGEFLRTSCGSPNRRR

[3] = target: T4, Flag-tagged STRADα, Q7RTN6
T4 chain: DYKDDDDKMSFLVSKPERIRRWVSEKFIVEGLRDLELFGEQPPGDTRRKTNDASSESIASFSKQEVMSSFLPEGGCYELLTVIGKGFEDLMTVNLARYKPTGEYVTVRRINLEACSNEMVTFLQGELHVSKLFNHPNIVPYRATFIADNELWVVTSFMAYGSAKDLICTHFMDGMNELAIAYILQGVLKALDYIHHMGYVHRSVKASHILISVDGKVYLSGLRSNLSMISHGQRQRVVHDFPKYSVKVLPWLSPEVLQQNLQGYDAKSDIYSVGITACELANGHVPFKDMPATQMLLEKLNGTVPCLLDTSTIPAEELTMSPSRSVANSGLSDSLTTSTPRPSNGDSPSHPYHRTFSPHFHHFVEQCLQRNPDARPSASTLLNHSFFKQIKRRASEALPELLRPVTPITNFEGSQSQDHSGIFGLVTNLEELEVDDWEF

[4] = target: T5, Flag-tagged STRADβ, Q9C0K7
T5 chain: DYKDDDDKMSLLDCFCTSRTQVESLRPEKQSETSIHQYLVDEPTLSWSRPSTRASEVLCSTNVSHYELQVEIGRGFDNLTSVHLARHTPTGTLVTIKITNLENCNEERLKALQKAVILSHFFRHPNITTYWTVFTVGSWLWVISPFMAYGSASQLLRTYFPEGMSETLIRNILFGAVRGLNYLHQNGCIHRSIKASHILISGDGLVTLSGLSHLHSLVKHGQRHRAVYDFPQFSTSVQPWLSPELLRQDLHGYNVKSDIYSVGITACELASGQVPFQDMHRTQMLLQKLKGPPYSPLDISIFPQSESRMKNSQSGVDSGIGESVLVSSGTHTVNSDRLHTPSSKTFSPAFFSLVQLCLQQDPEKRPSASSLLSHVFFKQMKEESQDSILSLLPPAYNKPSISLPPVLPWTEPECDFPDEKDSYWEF

Flag-tagged STRADβ = target: T6, Flag-tagged STRADβ (human, UniProt Q9C0K7 1-418); assay: heterotrimeric complex purified through GST-LKB1 from co-transfected 293 cells, colloidal blue gel and blots
T6 construct: pCMV5 vector; also called Flag-STRADβ; FLAG-STRADβ
T6 sequence: T5 chain
Description: (§1) FIG. 4. MO25α is associated with LKB1 through STRAD (A) 293 cells were transfected with plasmids encoding for the expression of the indicated GST fusion proteins together with Myc-MO25α. 36 h post transfection, the GST tagged proteins were affinity purified from the cell lysates using glutathione-Sepharose as described in Materials and Methods. […] 5 μg of total cell lysates prior to affinity purification were also subjected to immunoblotting with anti-Myc antibody to ensure that Myc-MO25α was expressed at similar levels in each co-transfection (lower panel). (B) N-terminal GST tagged LKB1 was expressed in 293 cells in the presence or absence of Flag-STRADα and purified as above. The purified proteins were subjected to SDS-polyacrylamide gel electrophoresis and visualised by Colloidal blue staining (upper panel). The faint protein band indicated, corresponding to an endogenous protein of 40-kDa (marked *), was identified by tryptic peptide mass-spectral fingerprint as endogenously expressed MO25α (with 38% sequence coverage). The purified proteins were also immunoblotted with the indicated antibodies (lower panels). (C) As above except that GST-LKB1 was expressed in 293 cells together with the indicated isoforms of Flag-STRAD and Myc-MO25 and the proteins visualised by colloidal blue staining were also immunoblotted with the indicated antibodies. For all panels, similar results were obtained in at least 3 separate experiments.
(§2) Expression of GST-fusion proteins in 293 cells and affinity purification. 10-cm diameter dishes of 293 cells were transiently transfected with 3 to 10 μg of the pEBG-2T constructs using a modified calcium phosphate method (Alessi et al., 1996). 36 h post-transfection, the cells were lysed and the clarified lysates were incubated for 1 h on a rotating platform with glutathione-Sepharose (25 μl/dish of lysate) previously equilibrated in lysis Buffer.

Flag-tagged STRADα = target: T7, Flag-tagged STRADα (human, UniProt Q7RTN6 1-431, limits assumed); assay: as above
T7 construct: pCMV5 vector; also called Flag-STRADα; FLAG-STRADα
T7 sequence: T4 chain
Description: as §1, §2

Molecule: LSNMMSDGEFLRTSCGSPNRRR [AMPKtide, human AMPKα1 residues 163-181 with 3 additional Arg residues added to the C-terminal]
Km [1]: 1800 ± 480 µM | Vmax [1]: 23.4±3.5

B1: recombinant GST-LKB1:STRADα:MO25α complex (protein)
chain 1: MDVADPEPLGLFSEGELMSVGMDTFIHRIDSTEVIYQPRRKRAKLIGKYLMGDLLGEGSYGKVKEVLDSETLCRRAVKILKKKKLRRIPNGEANVKKEIQLLRRLRHRNVIQLVDVLYNEEKQKMYMVMEYCVCGMQEMLDSVPEKRFPVCQAHGYFRQLIDGLEYLHSQGIVHKDIKPGNLLLTTNGTLKISDLGVAEALHPFAVDDTCRTSQGSPAFQPPEIANGLDTFSGFKVDIWSAGVTLYNITTGLYPFEGDNIYKLFENIGRGDFTIPCDCGPPLSDLLRGMLEYEPAKRFSIRQIRQHSWFRKKHPLAEALVPIPPSPDTKDRWRSMTVVPYLEDLHGRAEEEEEEDLFDIEDGIIYTQDFTVPGQVLEEEVGQNGQSHSLPKAVCVNGTEPQLSSKVKPEGRPGTANPARKVCSSNKIRRLSACKQQ
chain 2: T4 chain
chain 3: T2 sequence (Q9Y376 1-341 partner)
Km (phosphorylation of the T-loop peptide) [2]: The Km for the peptide was estimated to be 1.80±0.48 | Vmax of phosphorylation of AMPKtide by the GST-LKB1-STRADα-MO25α complex [2]: Vmax: 23.43 ± 3.51 U/mg

B2: N-terminal GST tagged wild type LKB1 (protein)
chain: B1 chain 1
LKB1 activity (autophosphorylation and phosphorylation of MBP) [3]: co-expression with STRADα induced an 4-fold increase in LKB1 activity | Relative activation (MBP): 32P phosphorylation of MBP by affinity purified GST-LKB1-WT co-expressed with STRADα (lane 2), GST-LKB1 alone (lane 1) = 1 [3]: 3.9 | LKB1 activity (autophosphorylation and phosphorylation of MBP) [4]: LKB1 was only activated by STRADβ in the presence of MO25 isoforms

Further lines, results first:

activation of AMPK (AMPK): not activated
Molecule: CN(C)C(=N)N=C(N)N [metformin]

binding result (Flag-tagged STRADβ): binds | binding result (Flag-tagged STRADα): binds
B3: N-terminal Myc-tagged MO25β (other)
chain: MEQKLISEEDLPLFSKSHKNPAEIVKILKDNLAILEKQDKKTDKASEEVSKSLQAMKEILCGTNEKEPPTEAVAQLAQELYSSGLLVTLIADLQLIDFEGKKDVTQIFNNILRRQIGTRSPTVEYISAHPHILFMLLKGYEAPQIALRCGIMLRECIRHEPLAKIILFSNQFRDFFKYVELSTFDIASDAFATFKDLLTRHKVLVADFLEQNYDTIFEDYEKLLQSENYVTKRQSLKLLGELILDRHNFAIMTKYISKPENLKLMMNLLRDKSPNIQFEAFHVFKVFVASPHKTQPIVEILLKNQPKLIEFLSSFQKERTDDEQFADEKNYLIKQIRDLKKTAP
notes: also called Myc-MO25β; myc-MO25β
